We go through 3 molecules from US20080032927A1 (published 2008).

Like-named read-outs stand apart in the source and are kept apart here.

In assay [1] the target is LEF1/TCF-transcriptional factors. Kind of assay: cell-based or functional assay.
The target is the same in assay [2]. Kind of assay: cell-based or functional assay. This is another data set of the same source.
For assay [3], the target named is T1, TCF4 (UniProt Q9NQB0 1-619, limits assumed).
T1 construct: Endogenous protein of HCT116 cells; also called endogenous TCF4
T1 sequence (Q9NQB0 whole entry): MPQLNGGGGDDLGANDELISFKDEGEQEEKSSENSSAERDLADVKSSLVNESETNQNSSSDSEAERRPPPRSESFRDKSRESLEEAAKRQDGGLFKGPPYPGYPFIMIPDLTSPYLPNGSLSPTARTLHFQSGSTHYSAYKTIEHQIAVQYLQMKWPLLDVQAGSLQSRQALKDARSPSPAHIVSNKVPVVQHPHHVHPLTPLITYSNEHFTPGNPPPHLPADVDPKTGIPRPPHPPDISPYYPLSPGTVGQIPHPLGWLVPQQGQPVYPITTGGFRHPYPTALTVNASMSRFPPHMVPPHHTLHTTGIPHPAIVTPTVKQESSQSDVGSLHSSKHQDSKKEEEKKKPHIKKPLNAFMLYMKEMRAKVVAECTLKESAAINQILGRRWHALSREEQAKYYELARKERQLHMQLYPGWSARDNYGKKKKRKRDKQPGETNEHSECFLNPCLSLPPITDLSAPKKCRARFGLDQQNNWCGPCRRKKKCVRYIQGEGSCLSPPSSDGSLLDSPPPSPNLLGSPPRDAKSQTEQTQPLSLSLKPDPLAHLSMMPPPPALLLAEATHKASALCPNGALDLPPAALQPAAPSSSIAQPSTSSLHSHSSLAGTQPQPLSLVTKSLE
Kind of assay: co-immunoprecipitation with anti-TCF4 beads. The protocol:
Co-immunoprecipitation-The affinity-protein G beads were prepared by mixing 20 μl of protein G plus-Agarose beads (Santa Cruz Biotechnology) with 1 μg of corresponding antibody. A total of 2×10⁶ of cells were lysed with 1× cells lysis buffer (Promega) containing 1× protease inhibitor reagent (Roche), incubated on ice for 30 minutes, sonicated briefly, and centrifuged at 12,000 g for 5 minutes at 4° C. The supernatants were further cleaned with 20 μl of untreated protein G plus-Agarose beads and 2 μg of pre-immune serum for 2 hours at 4° C. The supernatants were then mixed with 20 μl of prelabeled protein G plus-Agarose beads at 4° C. overnight. The beads were washed four times with PBS plus 0.2% NP40.
Xom binds to LEF1/TCF factors in vivo and in vitro-Binding of LEF1/TCFs to the promoter of TOPflash is required for the activation of the reporter construct; thus, the finding that expression of Xom activates TOPflash but not FOPflash raised the possibility that Xom activates the TOPflash reporter through interaction with LEF1/TCFs. This hypothesis was tested by determining whether Xom physically interacts with LEF1/TCFs. Co-immunoprecipitation experiments was carried out in HCT116 cells transiently transfected with mye-Xom. […] The in vivo association between Xom and TCF4 appears to be strong and could not be dissociated with 300 mM NaCl and 0.1% NP40. […]

In assay [1], Xom showed a TOPflash reporter in 293T cells of 10 fold and a TOPflash reporter transcription in Xenopus embryos of 7 fold.

B1: XomCD85 (protein)
chain: MTKAFSSVEWLAQSSRRSHREQPSKVDQRYSPYPSPSLPSWNSDVSPSSWNSQLSPDPDSAQVSPCPASAQVSPYSSDSEISLYSHEEEASFYGMDLNTSSSPGDNGLLHSEMVSVPDNIPRASSDEDAAKSAYSTSTDSGYESETSCSSSTAPEGDAISLSPNDTSDEEGKMGRRLRTAFTSDQISTLEKTFQKHRYLGASERQKLAAKLQLSEVQIKTWFQNRRMKYKREIQDGRPDSY
For the molecule B1, the TOPflash reporter in 293T cells in assay [2] was found to be 10 fold.

B2: XomID110 (other)
chain: MTKAFSSVEWLAQSSRRSHREQPSKVDQRYSPYPSPSLPSWNSDVSPSSWNSQLSPDPDSAQVSPCPASAQVSPYSSDSEISLYSHEEEASFYGMDLNTSSSPGDNGLLHSEMVSVPDNIPRASSDEDAAYHPAQFFGVYGYAQQPTPVFQHAVQHPYPGYNPLMETLPGTMPYTMHPPAMDSMTPFNSQPFQMLYLPQQHLGQPLTYQEERPFVR
notes: Internal deletion mutant of Xom lacking aa 131-240, which includes the homeodomain; also called XomID110 (fusion of aa 1-130 and aa 241-326)
Regarding B2, in assay [3], the binding result is on record as “no binding”.
